Experimental findings from paper PMC3785434 are described below.

The term stoichiometry N denotes the number of molecules, sites or subunits per partner or assembly.

Experiment in all cases: SEC; HiLoad 16/60 Superdex 75, 50 mM sodium phosphate pH 7.4, 50 µg sample, 0.6 mL/min, calibrated with mass standards; self-association of the free light chain (dimer)
(In general: SEC sorts molecules by how far they enter the pores of the column.)

Assay [1] addresses Bence Jones protein from AL-2 patient (human) (UniProt P01701).
The target in assay [2] is recombinant free immunoglobulin lambda light chain of AL amyloidosis patient AL-2 (human) (UniProt P01701).
For assay [3], the target named is recombinant free immunoglobulin lambda light chain of AL amyloidosis patient AL-1 (human) (UniProt P01699).
Assay [4] has as its target recombinant free immunoglobulin lambda light chain of AL amyloidosis patient AL-3 (human) (UniProt P01699).

Consider “Bence Jones protein from AL-2 patient (from UniProt P01701 20-117) (natural protein)”, for which the stoichiometry N in assay [1] is 2. With “recombinant free immunoglobulin lambda light chain of AL amyloidosis patient AL-2 (from UniProt P01701 20-117)”, the stoichiometry N in assay [2] was 2. “recombinant free immunoglobulin lambda light chain of AL amyloidosis patient AL-1 (from UniProt P01699 20-117)”: in assay [3], the stoichiometry N was 2. As to “recombinant free immunoglobulin lambda light chain of AL amyloidosis patient AL-3 (from UniProt P01699 20-117)”, the stoichiometry N in assay [4] was 2.
